Measured values taken from patent US4770996A, “Identification of individuals predisposed toward alcohol abuse” (priority 1986, dated 1988).

Substrate: NCCc1ccccc1
Experiment: Platelet monoamine oxidase (MAO) assay, deamination of 14C-PEA
Format: biochemical, human
Conditions: other: platelets of control subjects; varying PEA; mean±SEM, n=6; 37.0 °C
Procedure: Platelets were prepared from whole blood (20 ml) which was obtained by venipuncture from healthy volunteers and alcoholic subjects. After standing at room temperature for approximately three to four hours in citrate-phosphate-dextrose solution, each blood sample was centrifuged at 180×G for two minutes. The platelet-rich plasma (PRP) was carefully removed and platelet count was determined from aliquots (20 ul) of the PRP with a Coulter S-plus Thrombocounter. The PRP was centrifuged at 16,000 g for ten minutes. The pellet was resuspended in 50 ml of cold 50 mM Tris-HCl, pH 7.5, containing […] NaCl and 20 mM ethylene diamine tetraacetic acid (EDTA). The centrifugation was repeated twice, and the final pellet was resuspended in 1 ml of cold 5 mM Tris-HCl, pH 7.5, containing 5 mM EDTA. Suspensions were rapidly frozen at -70° C., and samples were stored at -70° C. for no longer than four weeks prior to assay.
To measure the deamination of ^14 C-PEA, assay mixtures (total volume, 0.3 ml) contained approximately 15 ug of platelet protein. Reactions were carried out in 0.1 M sodium phosphate, pH 7.4, at 37° C. […] Two additional ml of water and 20 ml of scintillation fluid were added to each vial, and radioactivity was determined in a liquid scintillation spectrometer. […]

B1: platelet monoamine oxidase (MAO) (Homo sapiens) (protein)
chain: MSNKCDVVVVGGGISGMAAAKLLHDSGLNVVVLEARDRVGGRTYTLRNQKVKYVDLGGSYVGPTQNRILRLAKELGLETYKVNEVERLIHHVKGKSYPFRGPFPPVWNPITYLDHNNFWRTMDDMGREIPSDAPWKAPLAEEWDNMTMKELLDKLCWTESAKQLATLFVNLCVTAETHEVSALWFLWYVKQCGGTTRIISTTNGGQERKFVGGSGQVSERIMDLLGDRVKLERPVIYIDQTRENVLVETLNHEMYEAKYVISAIPPTLGMKIHFNPPLPMMRNQMITRVPLGSVIKCIVYYKEPFWRKKDYCGTMIIDGEEAPVAYTLDDTKPEGNYAAIMGFILAHKARKLARLTKEERLKKLCELYAKVLGSLEALEPVHYEEKNWCEEQYSGGCYTTYFPPGILTQYGRVLRQPVDRIYFAGTETATHWSGYMEGAVEAGERAAREILHAMGKIPEDEIWQSEPESVDVPAQPITTTFLERHLPSVPGLLRLIGLTTIFSATALGFLAHKRGLLVRV
notes: contained approximately 15 ug of platelet protein; from tissue; host or cells: platelets (membranes) from whole blood of volunteers and alcoholic subjects
  Km: 1.4 ± 0.2 µM
  Vmax: 508±37 pmole/mg protein/minute
